Laboratory results published in patent US20160000891A1.

Molecular target: PF-4 in cynomolgus plasma (cynomolgus)
Experiment: aligned sandwich ELISA, cynomolgus plasma

## monoclonal anti-HPF4 antibody (Abcam cat. no.: ab49735)
  AUC Ratio (vs anti-HPF4): 1
  anti-HPF4 AUC mean: 2.79
